Measured values taken from article PMC9482650, “Quantitative fragmentomics allow affinity mapping of interactomes” (Nature Communications, 2022).

T1: GRIP1_3, Q9Y3R0
T1 sequence (Q9Y3R0 247-346, limits assumed, looked up): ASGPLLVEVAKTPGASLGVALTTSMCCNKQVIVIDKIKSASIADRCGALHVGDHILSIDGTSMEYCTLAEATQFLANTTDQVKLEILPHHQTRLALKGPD

T2: DVL3, Q92997
T2 sequence (Q92997 244-331, limits assumed, looked up): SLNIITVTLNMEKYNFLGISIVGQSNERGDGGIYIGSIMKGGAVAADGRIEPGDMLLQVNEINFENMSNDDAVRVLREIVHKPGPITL

T3: CARD11, Q9BXL7
T3 sequence (Q9BXL7 662-765, limits assumed, looked up): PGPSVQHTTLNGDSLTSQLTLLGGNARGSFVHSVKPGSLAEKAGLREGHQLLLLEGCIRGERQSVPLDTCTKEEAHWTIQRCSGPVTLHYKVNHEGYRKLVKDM

T4: RHPN1, Q8TCX5
T4 sequence (Q8TCX5 508-602, limits assumed, looked up): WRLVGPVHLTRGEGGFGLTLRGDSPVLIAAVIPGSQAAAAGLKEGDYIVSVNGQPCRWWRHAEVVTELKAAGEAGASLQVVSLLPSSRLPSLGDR

T5: ARHGEF11, O15085
T5 sequence (O15085 42-136, limits assumed, looked up): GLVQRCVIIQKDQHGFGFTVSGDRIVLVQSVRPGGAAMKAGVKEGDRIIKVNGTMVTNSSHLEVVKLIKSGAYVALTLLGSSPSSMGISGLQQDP

T6: MPDZ_12, O75970
T6 sequence (O75970 1857-1958, limits assumed, looked up): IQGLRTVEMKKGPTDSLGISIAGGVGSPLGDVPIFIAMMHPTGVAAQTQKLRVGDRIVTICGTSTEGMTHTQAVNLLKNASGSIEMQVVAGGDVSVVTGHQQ

T7: HTRA3, P83110
T7 sequence (P83110 354-453, limits assumed, looked up): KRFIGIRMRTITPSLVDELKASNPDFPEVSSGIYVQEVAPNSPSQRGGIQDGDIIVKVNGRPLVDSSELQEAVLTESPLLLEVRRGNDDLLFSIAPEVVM

T8: GRIP1_7, Q9Y3R0
T8 sequence (Q9Y3R0 999-1096, limits assumed, looked up): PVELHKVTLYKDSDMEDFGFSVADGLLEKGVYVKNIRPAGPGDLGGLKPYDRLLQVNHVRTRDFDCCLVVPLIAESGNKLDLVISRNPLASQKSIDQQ

T9: LNX2_3, Q8N448
T9 sequence (Q8N448 463-564, limits assumed, looked up): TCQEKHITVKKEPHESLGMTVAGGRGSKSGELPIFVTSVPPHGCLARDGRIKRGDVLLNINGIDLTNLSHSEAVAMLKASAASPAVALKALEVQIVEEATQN

T10: LRRC7, Q96NW7
T10 sequence (Q96NW7 1440-1537, limits assumed, looked up): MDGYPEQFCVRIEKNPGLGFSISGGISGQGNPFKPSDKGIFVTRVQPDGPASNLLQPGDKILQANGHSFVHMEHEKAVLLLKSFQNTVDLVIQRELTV

B1: UNC93A, Q86WB7 (peptide)
chain: AEDEEIQTKM
B2: NECTIN3, Q9NQS3 (peptide)
chain: SVISRREWYV
B3: SMCHD1, A6NHR9 (peptide)
chain: QNRIITKTDV
B4: NOS1AP, O75052 (peptide)
chain: GDGLDDEIAV

Biological target: LNX1_1, Q8TBB1
Sequence (Q8TBB1 261-371): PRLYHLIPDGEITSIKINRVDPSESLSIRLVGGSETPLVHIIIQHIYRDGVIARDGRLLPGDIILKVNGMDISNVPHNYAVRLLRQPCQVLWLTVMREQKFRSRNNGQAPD
Experiment: holdup assay
Parameters: key: below the threshold = too weak to quantify, mostly under pKd 3.1 to 4
Conditions: plain residues with an end cap or a label only (N-terminal biotin on a linker: ado-ado)

| pKd | Binder |
| --- | --- |
| below the threshold | B1 |
| below the threshold | B2 |
| 3.7 | B3 |
| below the threshold | B4 |

Biological target: MAGI2_3, Q86UL8
Sequence (Q86UL8 600-682): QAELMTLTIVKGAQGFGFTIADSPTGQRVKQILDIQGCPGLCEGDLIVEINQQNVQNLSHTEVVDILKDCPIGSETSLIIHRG
Experiment: holdup assay
Parameters: key: below the threshold = too weak to quantify, mostly under pKd 3.1 to 4
Conditions: plain residues with an end cap or a label only (N-terminal biotin on a linker: ado-ado)

| pKd | Binder |
| --- | --- |
| below the threshold | B1 |
| below the threshold | B2 |
| below the threshold | B3 |
| below the threshold | B4 |

Biological target: T1, GRIP1_3, Q9Y3R0
Experiment: holdup assay
Parameters: key: below the threshold = too weak to quantify, mostly under pKd 3.1 to 4
Conditions: plain residues with an end cap or a label only (N-terminal biotin on a linker: ado-ado)

| pKd | Binder |
| --- | --- |
| below the threshold | B1 |
| below the threshold | B2 |
| below the threshold | B3 |
| below the threshold | B4 |

Biological target: NHERF4_2, Q86UT5
Sequence (Q86UT5 220-308): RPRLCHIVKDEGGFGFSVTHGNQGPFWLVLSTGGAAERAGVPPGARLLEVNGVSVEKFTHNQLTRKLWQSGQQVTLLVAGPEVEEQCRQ
Experiment: holdup assay
Parameters: key: below the threshold = too weak to quantify, mostly under pKd 3.1 to 4
Conditions: plain residues with an end cap or a label only (N-terminal biotin on a linker: ado-ado)

| pKd | Binder |
| --- | --- |
| below the threshold | B1 |
| below the threshold | B2 |
| below the threshold | B3 |
| below the threshold | B4 |

Biological target: T2, DVL3, Q92997
Experiment: holdup assay
Parameters: key: below the threshold = too weak to quantify, mostly under pKd 3.1 to 4
Conditions: plain residues with an end cap or a label only (N-terminal biotin on a linker: ado-ado)

| pKd | Binder |
| --- | --- |
| below the threshold | B1 |
| 4.69 | B2 |
| below the threshold | B3 |
| below the threshold | B4 |

Biological target: MAGI1_2, Q96QZ7
Sequence (Q96QZ7 456-580): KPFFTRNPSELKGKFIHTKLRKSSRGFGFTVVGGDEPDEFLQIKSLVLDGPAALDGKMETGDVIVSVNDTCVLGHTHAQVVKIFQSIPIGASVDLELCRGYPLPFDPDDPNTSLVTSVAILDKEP
Experiment: holdup assay
Parameters: key: below the threshold = too weak to quantify, mostly under pKd 3.1 to 4
Conditions: plain residues with an end cap or a label only (N-terminal biotin on a linker: ado-ado)

| pKd | Binder |
| --- | --- |
| below the threshold | B1 |
| 4.78 | B2 |
| 3.99 | B3 |
| below the threshold | B4 |

Biological target: GRIP2_5, Q9C0E4
Sequence (Q9C0E4 544-642): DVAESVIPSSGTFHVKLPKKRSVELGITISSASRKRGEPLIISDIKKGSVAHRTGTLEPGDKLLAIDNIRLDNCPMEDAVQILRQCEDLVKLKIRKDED
Experiment: holdup assay
Parameters: key: below the threshold = too weak to quantify, mostly under pKd 3.1 to 4
Conditions: plain residues with an end cap or a label only (N-terminal biotin on a linker: ado-ado)

| pKd | Binder |
| --- | --- |
| below the threshold | B1 |
| below the threshold | B2 |
| below the threshold | B3 |
| below the threshold | B4 |

Biological target: T3, CARD11, Q9BXL7
Experiment: holdup assay
Parameters: key: below the threshold = too weak to quantify, mostly under pKd 3.1 to 4
Conditions: plain residues with an end cap or a label only (N-terminal biotin on a linker: ado-ado)

| pKd | Binder |
| --- | --- |
| below the threshold | B1 |
| below the threshold | B2 |
| below the threshold | B3 |
| below the threshold | B4 |

Biological target: T4, RHPN1, Q8TCX5
Experiment: holdup assay
Parameters: key: below the threshold = too weak to quantify, mostly under pKd 3.1 to 4
Conditions: plain residues with an end cap or a label only (N-terminal biotin on a linker: ado-ado)

| pKd | Binder |
| --- | --- |
| 3.67 | B1 |
| below the threshold | B2 |
| below the threshold | B3 |
| below the threshold | B4 |

Biological target: TJP1_2, Q07157
Sequence (Q07157 181-274): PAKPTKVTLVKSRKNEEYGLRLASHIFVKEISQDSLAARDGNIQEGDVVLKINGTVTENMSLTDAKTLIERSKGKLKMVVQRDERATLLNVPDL
Experiment: holdup assay
Parameters: key: below the threshold = too weak to quantify, mostly under pKd 3.1 to 4
Conditions: plain residues with an end cap or a label only (N-terminal biotin on a linker: ado-ado)

| pKd | Binder |
| --- | --- |
| below the threshold | B1 |
| 3.82 | B2 |
| below the threshold | B3 |
| below the threshold | B4 |

Biological target: Inadl_10, Q8NI35
Sequence (Q8NI35 1673-1763): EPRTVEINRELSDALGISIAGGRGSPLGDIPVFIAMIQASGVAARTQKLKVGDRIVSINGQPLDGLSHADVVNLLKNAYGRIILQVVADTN
Experiment: holdup assay
Parameters: key: below the threshold = too weak to quantify, mostly under pKd 3.1 to 4
Conditions: plain residues with an end cap or a label only (N-terminal biotin on a linker: ado-ado)

| pKd | Binder |
| --- | --- |
| below the threshold | B1 |
| below the threshold | B2 |
| below the threshold | B3 |
| below the threshold | B4 |

Biological target: GRASP, Q7Z6J2
Sequence (Q7Z6J2 96-193): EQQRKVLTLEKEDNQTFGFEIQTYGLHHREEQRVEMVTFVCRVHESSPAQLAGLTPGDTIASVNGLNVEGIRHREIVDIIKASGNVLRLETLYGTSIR
Experiment: holdup assay
Parameters: key: below the threshold = too weak to quantify, mostly under pKd 3.1 to 4
Conditions: plain residues with an end cap or a label only (N-terminal biotin on a linker: ado-ado)

| pKd | Binder |
| --- | --- |
| below the threshold | B1 |
| below the threshold | B2 |
| 3.92 | B3 |
| below the threshold | B4 |

Biological target: T5, ARHGEF11, O15085
Experiment: holdup assay
Parameters: key: below the threshold = too weak to quantify, mostly under pKd 3.1 to 4
Conditions: plain residues with an end cap or a label only (N-terminal biotin on a linker: ado-ado)

| pKd | Binder |
| --- | --- |
| below the threshold | B1 |
| 4.55 | B2 |
| 4.13 | B3 |
| 4.37 | B4 |

Biological target: T6, MPDZ_12, O75970
Experiment: holdup assay
Parameters: key: below the threshold = too weak to quantify, mostly under pKd 3.1 to 4
Conditions: plain residues with an end cap or a label only (N-terminal biotin on a linker: ado-ado)

| pKd | Binder |
| --- | --- |
| below the threshold | B1 |
| below the threshold | B2 |
| below the threshold | B3 |
| below the threshold | B4 |

Biological target: T7, HTRA3, P83110
Experiment: holdup assay
Parameters: key: below the threshold = too weak to quantify, mostly under pKd 3.1 to 4
Conditions: plain residues with an end cap or a label only (N-terminal biotin on a linker: ado-ado)

| pKd | Binder |
| --- | --- |
| below the threshold | B1 |
| 4.99 | B2 |
| below the threshold | B3 |
| below the threshold | B4 |

Biological target: TJP1_3, Q07157
Sequence (Q07157 416-512): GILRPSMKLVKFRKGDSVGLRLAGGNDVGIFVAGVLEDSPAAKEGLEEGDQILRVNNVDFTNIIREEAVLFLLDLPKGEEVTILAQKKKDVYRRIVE
Experiment: holdup assay
Parameters: key: below the threshold = too weak to quantify, mostly under pKd 3.1 to 4
Conditions: plain residues with an end cap or a label only (N-terminal biotin on a linker: ado-ado)

| pKd | Binder |
| --- | --- |
| below the threshold | B1 |
| 3.67 | B2 |
| below the threshold | B3 |
| below the threshold | B4 |

Biological target: LDB3, O75112
Sequence (O75112 1-94): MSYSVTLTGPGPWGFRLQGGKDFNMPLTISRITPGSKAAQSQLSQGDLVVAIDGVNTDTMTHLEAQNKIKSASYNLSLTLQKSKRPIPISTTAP
Experiment: holdup assay
Parameters: key: below the threshold = too weak to quantify, mostly under pKd 3.1 to 4
Conditions: plain residues with an end cap or a label only (N-terminal biotin on a linker: ado-ado)

| pKd | Binder |
| --- | --- |
| below the threshold | B1 |
| below the threshold | B2 |
| below the threshold | B3 |
| below the threshold | B4 |

Biological target: DLG5_1, Q8TDM6
Sequence (Q8TDM6 617-713): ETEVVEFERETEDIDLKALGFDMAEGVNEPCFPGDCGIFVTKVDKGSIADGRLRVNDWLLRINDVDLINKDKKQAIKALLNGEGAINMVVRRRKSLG
Experiment: holdup assay
Parameters: key: below the threshold = too weak to quantify, mostly under pKd 3.1 to 4
Conditions: plain residues with an end cap or a label only (N-terminal biotin on a linker: ado-ado)

| pKd | Binder |
| --- | --- |
| below the threshold | B1 |
| below the threshold | B2 |
| below the threshold | B3 |
| below the threshold | B4 |

Biological target: T8, GRIP1_7, Q9Y3R0
Experiment: holdup assay
Parameters: key: below the threshold = too weak to quantify, mostly under pKd 3.1 to 4
Conditions: plain residues with an end cap or a label only (N-terminal biotin on a linker: ado-ado)

| pKd | Binder |
| --- | --- |
| below the threshold | B1 |
| 5.11 | B2 |
| below the threshold | B3 |
| below the threshold | B4 |

Biological target: GIPC2, Q8TF65
Sequence (Q8TF65 112-203): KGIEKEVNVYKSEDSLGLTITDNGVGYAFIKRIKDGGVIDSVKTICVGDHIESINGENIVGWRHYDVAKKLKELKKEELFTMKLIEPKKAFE
Experiment: holdup assay
Parameters: key: below the threshold = too weak to quantify, mostly under pKd 3.1 to 4
Conditions: plain residues with an end cap or a label only (N-terminal biotin on a linker: ado-ado)

| pKd | Binder |
| --- | --- |
| below the threshold | B1 |
| below the threshold | B2 |
| below the threshold | B3 |
| below the threshold | B4 |

Biological target: PDZRN4_1, Q6ZMN7
Sequence (Q6ZMN7 213-318): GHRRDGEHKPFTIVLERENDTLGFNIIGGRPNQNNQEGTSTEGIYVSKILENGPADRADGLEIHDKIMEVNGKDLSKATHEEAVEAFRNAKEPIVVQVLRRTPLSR
Experiment: holdup assay
Parameters: key: below the threshold = too weak to quantify, mostly under pKd 3.1 to 4
Conditions: plain residues with an end cap or a label only (N-terminal biotin on a linker: ado-ado)

| pKd | Binder |
| --- | --- |
| below the threshold | B1 |
| below the threshold | B2 |
| below the threshold | B3 |
| below the threshold | B4 |

Biological target: SCRIB_1, Q14160
Sequence (Q14160 718-814): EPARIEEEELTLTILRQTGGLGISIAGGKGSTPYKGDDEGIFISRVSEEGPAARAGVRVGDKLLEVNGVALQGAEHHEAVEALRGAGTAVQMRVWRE
Experiment: holdup assay
Parameters: key: below the threshold = too weak to quantify, mostly under pKd 3.1 to 4
Conditions: plain residues with an end cap or a label only (N-terminal biotin on a linker: ado-ado)

| pKd | Binder |
| --- | --- |
| below the threshold | B1 |
| below the threshold | B2 |
| 3.88 | B3 |
| below the threshold | B4 |

Biological target: T9, LNX2_3, Q8N448
Experiment: holdup assay
Parameters: key: below the threshold = too weak to quantify, mostly under pKd 3.1 to 4
Conditions: plain residues with an end cap or a label only (N-terminal biotin on a linker: ado-ado)

| pKd | Binder |
| --- | --- |
| below the threshold | B1 |
| below the threshold | B2 |
| below the threshold | B3 |
| below the threshold | B4 |

Biological target: LNX1_3, Q8TBB1
Sequence (Q8TBB1 500-596): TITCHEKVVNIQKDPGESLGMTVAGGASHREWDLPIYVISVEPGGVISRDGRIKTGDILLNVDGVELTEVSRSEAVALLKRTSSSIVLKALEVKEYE
Experiment: holdup assay
Parameters: key: below the threshold = too weak to quantify, mostly under pKd 3.1 to 4
Conditions: plain residues with an end cap or a label only (N-terminal biotin on a linker: ado-ado)

| pKd | Binder |
| --- | --- |
| below the threshold | B1 |
| 4.81 | B2 |
| below the threshold | B3 |
| below the threshold | B4 |

Biological target: IL16_1, Q14005
Sequence (Q14005 210-306): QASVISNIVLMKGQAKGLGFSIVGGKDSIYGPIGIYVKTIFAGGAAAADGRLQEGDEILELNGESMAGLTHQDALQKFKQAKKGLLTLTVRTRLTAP
Experiment: holdup assay
Parameters: key: below the threshold = too weak to quantify, mostly under pKd 3.1 to 4
Conditions: plain residues with an end cap or a label only (N-terminal biotin on a linker: ado-ado)

| pKd | Binder |
| --- | --- |
| below the threshold | B1 |
| 3.88 | B2 |
| below the threshold | B3 |
| below the threshold | B4 |

Biological target: NHERF4_4, Q86UT5
Sequence (Q86UT5 464-550): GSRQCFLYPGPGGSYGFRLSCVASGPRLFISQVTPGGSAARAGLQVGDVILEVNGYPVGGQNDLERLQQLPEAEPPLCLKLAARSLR
Experiment: holdup assay
Parameters: key: below the threshold = too weak to quantify, mostly under pKd 3.1 to 4
Conditions: plain residues with an end cap or a label only (N-terminal biotin on a linker: ado-ado)

| pKd | Binder |
| --- | --- |
| below the threshold | B1 |
| 4.07 | B2 |
| below the threshold | B3 |
| below the threshold | B4 |

Biological target: NHERF4_1, Q86UT5-2
Sequence (Q86UT5 other isoform, or with tags, fused parts or gaps): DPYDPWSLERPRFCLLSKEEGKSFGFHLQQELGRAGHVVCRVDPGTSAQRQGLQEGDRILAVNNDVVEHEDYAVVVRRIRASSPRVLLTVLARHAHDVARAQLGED
Experiment: holdup assay
Parameters: key: below the threshold = too weak to quantify, mostly under pKd 3.1 to 4
Conditions: plain residues with an end cap or a label only (N-terminal biotin on a linker: ado-ado)

| pKd | Binder |
| --- | --- |
| below the threshold | B1 |
| 3.49 | B2 |
| below the threshold | B3 |
| below the threshold | B4 |

Biological target: T10, LRRC7, Q96NW7
Experiment: holdup assay
Parameters: key: below the threshold = too weak to quantify, mostly under pKd 3.1 to 4
Conditions: plain residues with an end cap or a label only (N-terminal biotin on a linker: ado-ado)

| pKd | Binder |
| --- | --- |
| below the threshold | B1 |
| 3.52 | B2 |
| below the threshold | B3 |
| below the threshold | B4 |
